# In patent US20220009986A1 (AMBRX, published 2022):
# Several values for one entry are separate records, joined by “and”; a condition that tells them apart may be missing. Equal entries are not always repeated. Where two headings read alike, the source gives them in different places.
# T1: endogenous IL-10 receptors of MC/9 cells (mouse mast cell line) (mouse, UniProt Q61727 17-575)
# T1 sequence (looked up): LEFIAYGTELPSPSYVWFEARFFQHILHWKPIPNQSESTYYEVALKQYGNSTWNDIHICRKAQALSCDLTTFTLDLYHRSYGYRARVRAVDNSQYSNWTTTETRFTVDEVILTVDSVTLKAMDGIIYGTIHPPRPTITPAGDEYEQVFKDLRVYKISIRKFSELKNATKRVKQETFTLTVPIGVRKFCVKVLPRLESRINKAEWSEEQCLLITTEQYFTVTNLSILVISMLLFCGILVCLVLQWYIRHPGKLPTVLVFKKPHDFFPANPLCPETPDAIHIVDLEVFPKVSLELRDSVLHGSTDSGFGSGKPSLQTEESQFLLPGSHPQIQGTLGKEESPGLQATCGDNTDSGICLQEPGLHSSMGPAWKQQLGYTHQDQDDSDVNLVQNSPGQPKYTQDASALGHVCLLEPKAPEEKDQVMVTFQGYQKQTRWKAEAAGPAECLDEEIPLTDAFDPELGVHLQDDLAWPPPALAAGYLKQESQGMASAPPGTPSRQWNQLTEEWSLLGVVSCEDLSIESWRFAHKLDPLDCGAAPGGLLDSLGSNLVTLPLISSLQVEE
# Legend:
# Test in all cases: cell-based or functional assay
# [1] = target: T1, endogenous IL-10 receptors of MC/9 …
# [2] = target: T1, endogenous IL-10 receptors of MC/9 …; remark: listed apart in the source
# [3] = target: T1, endogenous IL-10 receptors of MC/9 …; remark: listed apart in the source
# [4] = target: T1, endogenous IL-10 receptors of MC/9 …; remark: listed apart in the source
"EC50 (ng/ml), MC/9 proliferation assay [1] [ng/mL]","EC50 (ng/ml), MC/9 proliferation assay [2]","EC50 (ng/ml), MC/9 proliferation assay [3] [ng/mL]","EC50 (ng/ml), MC/9 proliferation assay [4] [ng/mL]",Binder
0.42,0.303 ng/mL and 0.105 ng/mL,1,0.14,IL-10 wild type (mature wild type human IL-10) (ligand) SPGQGTQSENSCTHFPGNLPNMLRDLRDAFSRVKTFFQMKDQLDNLLLKESLLEDFKGYLGCQALSEMIQFYLEEVMPQAENQDPDIKAHVNSLGENLKTLRLRLRRCHRFLPCENKSKAVEQVKNAFNKLQEKGIYKAMSEFDIFINYIEAYMTMKIRN
,,,21.8,"10K PEG-hIL-10 wt (ligand, N-terminal PEGylation with 10K PEG) SPGQGTQSENSCTHFPGNLPNMLRDLRDAFSRVKTFFQMKDQLDNLLLKESLLEDFKGYLGCQALSEMIQFYLEEVMPQAENQDPDIKAHVNSLGENLKTLRLRLRRCHRFLPCENKSKAVEQVKNAFNKLQEKGIYKAMSEFDIFINYIEAYMTMKIRN"
,,,4.76,"5K PEG-hIL-10 wt (ligand, N-terminal PEGylation with 5K PEG) SPGQGTQSENSCTHFPGNLPNMLRDLRDAFSRVKTFFQMKDQLDNLLLKESLLEDFKGYLGCQALSEMIQFYLEEVMPQAENQDPDIKAHVNSLGENLKTLRLRLRRCHRFLPCENKSKAVEQVKNAFNKLQEKGIYKAMSEFDIFINYIEAYMTMKIRN"
